Laboratory results reported in patent US20180086836A1 (GLENMARK PHARMACEUTICALS S A, published 2018).

How the values were obtained:
hsCCR6/mmECL2 = target: T1, hsCCR6/mmECL2 (human/mouse hybrid, UniProt P51684 1-374); test: flow cytometry on transfected cells (Human Nter, only loop 2 drawn black as murine), 10 µg/ml, PE-labelled secondary antibody
T1 construct: also called second mutant; pT1-hsCCR6/mmECL2
T1 chain: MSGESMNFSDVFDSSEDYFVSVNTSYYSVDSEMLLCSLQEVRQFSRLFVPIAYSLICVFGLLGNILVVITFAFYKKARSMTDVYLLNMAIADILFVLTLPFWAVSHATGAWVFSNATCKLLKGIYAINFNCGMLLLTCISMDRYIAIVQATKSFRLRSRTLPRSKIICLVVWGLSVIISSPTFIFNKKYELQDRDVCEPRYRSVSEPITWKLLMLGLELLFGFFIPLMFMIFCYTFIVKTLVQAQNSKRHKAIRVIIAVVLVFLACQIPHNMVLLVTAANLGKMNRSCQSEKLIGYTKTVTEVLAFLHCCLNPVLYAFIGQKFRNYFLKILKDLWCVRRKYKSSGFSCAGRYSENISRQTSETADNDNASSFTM
Method: (§1) Binding of the chimeric 4H11 antibody to human/mouse CCR6 hybrid constructs was evaluated by flow cytometry. Human/mouse CCR6 transfectants were counted and 2×10⁵ cells were incubated with 10 μg/ml of chimeric 4H11 antibody. Binding activity of 4H11 was detected with anti-human IgG-PE. To evaluate good expression of the human/mouse chimera on cells, two commercial antibodies directed against human and mouse CCR6 were used. Histogram plots show the geometric mean of fluorescence intensity (Y-axis) measured by flow cytometry
(§2) Binding of MAb to the surface of CCR6 transfected CHO cells was assessed using flow cytometry. 2×10⁵ cells were distributed in a 96 well V bottom plate and centrifuged for three minutes at 1300 rpm. Cells were collected and incubated with the appropriate mAb at a final concentration of 10 μg/ml in a volume of 50 μl in FACS buffer. Cells were incubated for 30 minutes on ice, washed twice and resuspended in 50 μl of PE-labelled secondary antibody diluted at 1/200 in FACS buffer. Cells were incubated for 15 minutes on ice, washed once, resuspended in 400 μl of FACS buffer and analyzed on the FACS instrument (Cyan, Beckman Coulter) in channel FL-2.

mmCCR6/hsN-term = target: T2, mmCCR6/hsN-term (human/mouse hybrid); test: flow cytometry on transfected cells (Human Nter, Murine loops 1-3), 10 µg/ml, PE-labelled secondary antibody
T2 construct: also called mutant 5; mouse CCR6 receptor containing a human N-terminal region
T2 chain: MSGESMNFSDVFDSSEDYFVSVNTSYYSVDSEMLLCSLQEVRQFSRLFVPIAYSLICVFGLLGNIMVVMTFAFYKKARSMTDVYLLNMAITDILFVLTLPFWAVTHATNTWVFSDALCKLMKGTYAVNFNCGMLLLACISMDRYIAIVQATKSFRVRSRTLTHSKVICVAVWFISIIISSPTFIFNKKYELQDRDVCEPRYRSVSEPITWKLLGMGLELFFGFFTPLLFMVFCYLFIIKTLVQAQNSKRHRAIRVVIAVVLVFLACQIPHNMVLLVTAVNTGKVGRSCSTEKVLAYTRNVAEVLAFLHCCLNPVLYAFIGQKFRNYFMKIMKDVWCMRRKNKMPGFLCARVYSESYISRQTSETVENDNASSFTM
Method: as §1, §2

hsCCR6/mmECL3 = target: T3, hsCCR6/mmECL3 (human/mouse hybrid, UniProt P51684 1-374); test: flow cytometry on transfected cells (Human Nter, only loop 3 drawn black as murine), 10 µg/ml, PE-labelled secondary antibody
T3 construct: also called third mutant; pT1-hsCCR6/mmECL3
T3 chain: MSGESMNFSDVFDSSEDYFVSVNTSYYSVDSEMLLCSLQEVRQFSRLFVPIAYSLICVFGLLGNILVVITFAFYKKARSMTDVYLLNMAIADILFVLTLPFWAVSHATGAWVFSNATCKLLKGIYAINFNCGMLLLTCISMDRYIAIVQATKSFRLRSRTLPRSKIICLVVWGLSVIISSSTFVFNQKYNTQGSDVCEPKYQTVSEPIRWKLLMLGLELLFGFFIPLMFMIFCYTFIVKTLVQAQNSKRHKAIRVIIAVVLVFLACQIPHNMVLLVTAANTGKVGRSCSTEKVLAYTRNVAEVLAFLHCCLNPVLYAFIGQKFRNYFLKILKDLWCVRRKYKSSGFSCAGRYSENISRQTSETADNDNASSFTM
Method: as §1, §2

hsCCR6/mmECL1 = target: T4, hsCCR6/mmECL1 (human/mouse hybrid, UniProt P51684 1-374); test: flow cytometry on transfected cells (Human Nter, Murine loop 1, Human loops 2 and 3), 10 µg/ml, PE-labelled secondary antibody
T4 construct: also called first mutant; pT1-hsCCR6/mmECL1
T4 chain: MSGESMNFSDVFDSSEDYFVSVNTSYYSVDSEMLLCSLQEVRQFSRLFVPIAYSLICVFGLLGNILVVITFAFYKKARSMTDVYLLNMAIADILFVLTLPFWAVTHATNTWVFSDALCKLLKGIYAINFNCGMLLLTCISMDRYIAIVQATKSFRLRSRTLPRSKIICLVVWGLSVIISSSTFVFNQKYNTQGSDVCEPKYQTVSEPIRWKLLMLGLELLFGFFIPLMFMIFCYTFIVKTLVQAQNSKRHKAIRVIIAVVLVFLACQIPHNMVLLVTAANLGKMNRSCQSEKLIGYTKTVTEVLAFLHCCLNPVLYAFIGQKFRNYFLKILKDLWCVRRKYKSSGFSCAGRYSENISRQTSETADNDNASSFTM
Method: as §1, §2

mouse CCR6 = target: T5, mouse CCR6 (mouse, UniProt O54689 1-367); test: not given; premise of the human/mouse hybrid mapping
T5 construct: also called mmCCR6; murine CCR6
T5 sequence: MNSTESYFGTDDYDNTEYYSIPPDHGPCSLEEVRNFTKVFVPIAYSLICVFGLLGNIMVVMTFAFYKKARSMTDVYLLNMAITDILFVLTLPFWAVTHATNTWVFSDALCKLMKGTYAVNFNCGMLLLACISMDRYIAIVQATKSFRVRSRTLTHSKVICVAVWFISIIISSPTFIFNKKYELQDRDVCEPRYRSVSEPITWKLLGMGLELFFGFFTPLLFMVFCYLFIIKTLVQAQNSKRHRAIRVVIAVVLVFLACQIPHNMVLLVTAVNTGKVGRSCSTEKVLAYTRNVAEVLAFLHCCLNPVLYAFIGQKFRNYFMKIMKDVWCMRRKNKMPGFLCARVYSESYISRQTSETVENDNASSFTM

hsCCR6/mmN-term = target: T6, hsCCR6/mmN-term (human/mouse hybrid, UniProt P51684 36-374); test: flow cytometry on transfected cells (Murine Nter, Human loops 1-3), PE-labelled secondary antibody
T6 construct: also called mutant 4; human CCR6 receptor containing a mouse N-terminal region
T6 chain: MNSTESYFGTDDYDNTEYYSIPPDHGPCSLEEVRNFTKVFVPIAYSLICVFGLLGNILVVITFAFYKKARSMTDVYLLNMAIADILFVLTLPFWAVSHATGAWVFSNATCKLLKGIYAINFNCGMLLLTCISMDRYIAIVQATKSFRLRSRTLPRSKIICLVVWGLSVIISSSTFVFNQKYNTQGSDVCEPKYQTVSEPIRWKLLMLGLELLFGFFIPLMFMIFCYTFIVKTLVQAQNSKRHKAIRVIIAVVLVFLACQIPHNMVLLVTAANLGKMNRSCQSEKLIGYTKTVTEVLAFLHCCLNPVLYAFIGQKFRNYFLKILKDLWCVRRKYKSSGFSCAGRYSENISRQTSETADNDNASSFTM
Method: as §1, §2

- binding result (hsCCR6/mmECL2): binds
- binding result (mmCCR6/hsN-term): binds
- binding result (hsCCR6/mmECL3): binds
- binding result (hsCCR6/mmECL1): binds
- binding result (mouse CCR6): no binding
- binding result (hsCCR6/mmN-term): no binding (tested: 10 µg/ml)
B1: chimeric 4H11 antibody (antibody, human IgG1, kappa, V domains shown)
VH: EVKLVESGGGLVQPGGSLKLSCATSGFSFSDYYMYWIRQTPEKRLEWVAYITNGGITYYPDTVKGRFTISRDNAKNTLYLQMSRLRSEDTAMYYCTSPLRGAWFAYWGQGTLVTVSS
VL: DVIMTQSPLSLPVSLGDQASISCRSSQSIVHSNGNTYLEWYLQKPGQSPKLLIYKVSNRFSGVPDRFSGSGSGTDFTLKISRVEAEDLGLYYCFQGSHVPLTFGAGTKLEIKR
notes: also called chimeric 4H11 mAb; 4H11 chimeric antibody
